From paper PMC9259484 (Nature, 2022)

Target: SARS-CoV-2 Wuhan-Hu-1 receptor binding domain (RBD), Spike (S) protein residues 319-539 (SARS-CoV-2, UniProt P0DTC2)
Experiment: BLI
Details: both partners purified

Binder	binding result
C105 (antibody, V domains shown) VH: QVQLVESGGGLIQPGGSLRLSCAASGFTVSSNYMSWVRQAPGKGLEWVSVIYSGGSTYYADSVKGRFTISRDNSKNTLYLQMNSLRAEDTAVYYCARGEGWELPYDYWGQGTLVTVSS VL: QSALTQPPSASGSPGQSVTISCTGTSSDVGGYKYVSWYQQHPGKAPKLMIYEVSKRPSGVPDRFSGSKSGNTASLTVSGLQAEDEADYYCSSYEGSNNFVVFGGGTKLTVL	binds
C118 (antibody, V domains shown) VH: QVQLVESGGGVVQPGRSLRLSCAASGFTFSNYAMHWVRQAPGKGLEWVAVISYDGSNKYYADSVKGRFTISRDNSKNTLYLQMNSLRAEDTAIYYCASGYTGYDYFVRGDYYGLDVWGQGTTVTVSS VL: QPVLTQSPSASASLGASVKLTCTLSSGHSSYAIAWHQQQPEKGPRYLMKLNTDGSHSKGDGIPDRFSGSSSGAERYLTISSLQSEDEADYYCQTWGTGILVFGGGTKLTVL	binds
